Key:
Experiment in all cases: SPR, antibody captured, C2 as analyte;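 also: biacore at 37 °C, anti-C2 mAbs held by immobilised goat anti-human IgG, C2 alanine or serine mutants injected, double-referenced sensorgrams fitted to a 1:1 kinetic or steady-state model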
human C2 D269A = biological target: T1, human C2 D269A (human, UniProt P06681 21-752)
T1 sequence: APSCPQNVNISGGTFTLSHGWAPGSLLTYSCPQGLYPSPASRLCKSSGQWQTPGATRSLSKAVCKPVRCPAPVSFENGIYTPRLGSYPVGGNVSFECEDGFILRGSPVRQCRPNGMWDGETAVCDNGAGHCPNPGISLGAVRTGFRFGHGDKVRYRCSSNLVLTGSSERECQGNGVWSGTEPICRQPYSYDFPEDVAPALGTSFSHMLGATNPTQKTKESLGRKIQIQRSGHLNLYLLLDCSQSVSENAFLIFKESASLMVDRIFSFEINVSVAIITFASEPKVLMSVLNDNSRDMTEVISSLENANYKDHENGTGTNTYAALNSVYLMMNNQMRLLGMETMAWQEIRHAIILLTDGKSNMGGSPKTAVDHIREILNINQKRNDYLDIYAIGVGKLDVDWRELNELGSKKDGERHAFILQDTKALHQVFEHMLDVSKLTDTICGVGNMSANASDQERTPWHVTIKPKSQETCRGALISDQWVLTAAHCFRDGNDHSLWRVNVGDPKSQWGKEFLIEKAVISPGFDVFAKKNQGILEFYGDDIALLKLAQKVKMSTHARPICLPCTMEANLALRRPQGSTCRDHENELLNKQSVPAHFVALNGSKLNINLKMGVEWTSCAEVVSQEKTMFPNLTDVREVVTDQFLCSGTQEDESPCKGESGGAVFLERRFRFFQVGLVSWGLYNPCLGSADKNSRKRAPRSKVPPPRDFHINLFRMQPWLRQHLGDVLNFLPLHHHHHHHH
Procedure: (§1) Surface plasmon resonance (SPR, Biacore) was used for all binding affinity analyses. In brief, goat anti-human IgG was directly immobilised onto the carboxymethyl dextran surface of CM5 sensorchips to approximately 12,000 RU using standard NHS/EDC chemistry at pH 5. The immobilised antibody surface was pre-conditioned with ten injections of polyclonal human IgG (Privigen 60 s) prepared at 1 μg/mL. Ligands (anti-C2 mAbs) were captured at the beginning of each cycle as described below. An adjacent spot or flow cell in which only Polyclonal IgG was capture was used as a reference surface. The goat anti-human IgG Fc antibody surface was regenerate in 100 mM H3PO4, injected for 45 seconds at the end of each cycle. Experiments were performed at 37° C. and the flow rate of each experiment was kept constant at 30 μL/min.
(§2) Sensogram data was double-referenced against a reference anti-IgG surface (i.e. minus anti-C2 mAb) and blank buffer injections obtained within each experiment. The binding data was fit to 1:1 (kinetic or steady-state) model using local Rmax and null refraction index (RI=0) when appropriate. Buffers and solutions were filtered (0.22 μm) prior to use.

human C2 N325A = biological target: T2, human C2 N325A (human, UniProt P06681 21-752)
T2 sequence: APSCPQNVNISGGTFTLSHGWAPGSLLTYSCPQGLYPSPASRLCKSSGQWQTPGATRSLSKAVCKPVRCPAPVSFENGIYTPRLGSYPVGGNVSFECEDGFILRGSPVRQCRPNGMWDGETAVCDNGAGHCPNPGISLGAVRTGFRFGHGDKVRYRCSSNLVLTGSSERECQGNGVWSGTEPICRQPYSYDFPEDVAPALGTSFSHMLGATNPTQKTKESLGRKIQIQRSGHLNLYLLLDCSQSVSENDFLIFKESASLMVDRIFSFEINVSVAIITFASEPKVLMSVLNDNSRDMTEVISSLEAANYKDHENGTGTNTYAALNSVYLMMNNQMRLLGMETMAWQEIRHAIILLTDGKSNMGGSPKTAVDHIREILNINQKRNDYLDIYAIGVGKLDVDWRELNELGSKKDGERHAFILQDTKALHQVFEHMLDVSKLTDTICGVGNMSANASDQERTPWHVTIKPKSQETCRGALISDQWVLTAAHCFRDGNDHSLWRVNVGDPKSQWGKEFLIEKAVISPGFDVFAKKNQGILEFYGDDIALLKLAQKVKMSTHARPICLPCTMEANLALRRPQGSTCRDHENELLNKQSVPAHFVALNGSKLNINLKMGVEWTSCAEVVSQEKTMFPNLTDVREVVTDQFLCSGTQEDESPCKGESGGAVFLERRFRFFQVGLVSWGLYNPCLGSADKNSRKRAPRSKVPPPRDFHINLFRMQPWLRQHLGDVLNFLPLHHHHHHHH
Procedure: as §1, §2

human C2 N424A = biological target: T3, human C2 N424A (human, UniProt P06681 21-752)
T3 sequence: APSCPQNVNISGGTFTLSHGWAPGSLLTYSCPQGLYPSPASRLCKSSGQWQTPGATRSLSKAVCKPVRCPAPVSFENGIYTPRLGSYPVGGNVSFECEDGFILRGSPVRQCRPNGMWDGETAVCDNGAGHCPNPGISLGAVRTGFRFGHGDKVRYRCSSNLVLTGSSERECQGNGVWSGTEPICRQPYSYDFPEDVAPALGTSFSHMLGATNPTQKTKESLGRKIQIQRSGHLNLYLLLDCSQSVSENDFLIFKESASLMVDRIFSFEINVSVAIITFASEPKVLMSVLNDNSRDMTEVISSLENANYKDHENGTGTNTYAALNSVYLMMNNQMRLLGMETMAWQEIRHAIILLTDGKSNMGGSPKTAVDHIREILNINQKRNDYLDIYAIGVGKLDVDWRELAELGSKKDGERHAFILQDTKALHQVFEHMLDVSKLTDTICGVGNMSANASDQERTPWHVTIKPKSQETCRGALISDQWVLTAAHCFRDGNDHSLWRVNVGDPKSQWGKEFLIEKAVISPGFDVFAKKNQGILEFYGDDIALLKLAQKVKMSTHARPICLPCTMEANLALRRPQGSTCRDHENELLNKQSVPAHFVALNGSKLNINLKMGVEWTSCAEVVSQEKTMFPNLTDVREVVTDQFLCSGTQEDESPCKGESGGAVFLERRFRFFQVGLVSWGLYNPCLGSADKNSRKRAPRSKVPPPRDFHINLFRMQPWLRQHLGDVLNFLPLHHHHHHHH
Procedure: as §1, §2

human C2 F437A = biological target: T4, human C2 F437A (human, UniProt P06681 21-752)
T4 sequence: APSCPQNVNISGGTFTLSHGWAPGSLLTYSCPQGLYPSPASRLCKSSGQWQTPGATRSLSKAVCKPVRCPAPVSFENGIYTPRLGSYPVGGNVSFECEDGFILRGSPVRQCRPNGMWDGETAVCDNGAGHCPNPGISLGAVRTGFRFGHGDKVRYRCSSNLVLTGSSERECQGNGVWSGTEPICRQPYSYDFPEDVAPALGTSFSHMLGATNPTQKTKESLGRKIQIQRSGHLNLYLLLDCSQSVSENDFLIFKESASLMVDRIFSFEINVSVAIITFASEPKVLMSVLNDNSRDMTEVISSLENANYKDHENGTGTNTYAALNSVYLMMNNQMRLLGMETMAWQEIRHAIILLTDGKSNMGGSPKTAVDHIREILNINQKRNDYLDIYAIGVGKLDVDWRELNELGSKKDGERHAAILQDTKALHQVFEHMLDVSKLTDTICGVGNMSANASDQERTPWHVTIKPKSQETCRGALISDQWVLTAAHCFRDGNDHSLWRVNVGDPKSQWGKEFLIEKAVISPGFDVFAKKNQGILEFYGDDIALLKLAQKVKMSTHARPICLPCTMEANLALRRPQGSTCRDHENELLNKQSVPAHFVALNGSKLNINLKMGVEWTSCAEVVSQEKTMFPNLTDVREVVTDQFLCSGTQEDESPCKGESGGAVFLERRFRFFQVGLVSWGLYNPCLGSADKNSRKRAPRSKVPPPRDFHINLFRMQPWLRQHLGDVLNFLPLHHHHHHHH
Procedure: as §1, §2

B1: RF16-242 (antibody, human IgG4 S228P, lambda, V domains shown)
VH: EVQLLQSGAEVKKPGESLKISCKGSGYSFTSYWIGWVRQMPGKGLEWMGIIYPGDSDTRYSPSFQGQVTISADKSISTAYLQWSSLKASDTAMYYCARRGHYGDYFDYWGQGTLVTVSS
VL: SYELTQPPSVSVSPGQTARITCSGDALPKKYAYWYHQKSGQAPVLVIYEDRRRPSEIPERFSGSSSGTMATLTITGAQVEDEGVYFCYSRDRAGNQRVFGGGTQLTVLG
notes: pH-dependent anti-C2 antibody from a phage display library
With B1 the Kd (human C2 D269A) was 12.9 nM, the Kd (human C2 N325A) was 39.9 nM and the Kd (human C2 N424A) was 5.7 nM. For the same binder, the Kd (human C2 F437A) was 107 nM.

From patent publication US20220332804A1 (CSL INNOVATION, published 2022)
